The values that follow come from publication PMC7884448.

A short description of data set [1]: SDD-AGE of MAVS aggregates, HEK293. The conditions noted are these: glycan lost; control: wild type.
Data set [2] can be described thus: cycloheximide chase, HEK293 and A549. The conditions noted are these: glycan gained; control: without Thiamet-G.

B1: mitochondrial antiviral signaling protein (MAVS): S366A (protein)
parent chain: MPFAEDKTYKYICRNFSNFCNVDVVEILPYLPCLTARDQDRLRATCTLSGNRDTLWHLFNTLQRRPGWVEYFIAALRGCELVDLADEVASVYQSYQPRTSDRPPDPLEPPSLPAERPGPPTPAAAHSIPYNSCREKEPSYPMPVQETQAPESPGENSEQALQTLSPRAIPRNPDGGPLESSSDLAALSPLTSSGHQEQDTELGSTHTAGATSSLTPSRGPVSPSVSFQPLARSTPRASRLPGPTGSVVSTGTSFSSSSPGLASAGAAEGKQGAESDQAEPIICSSGAEAPANSLPSKVPTTLMPVNTVALKVPANPASVSTVPSKLPTSSKPPGAVPSNALTNPAPSKLPINSTRAGMVPSKVPTSMVLTKVSASTVPTDGSSRNEETPAAPTPAGATGGSSAWLDSSSENRGLGSELSKPGVLASQVDSPFSGCFEDLAISASTSLGMGPCHGPEENEYKSEGTFGIHVAENPSIQLLEGNPGPPADPDGGPRPQADRKFQEREVPCHRPSPGALWLQVAVTGVLVVTLLVVLYRRRLH
For B1, the oligomerisation entry in data set [1] is “no change”.

B2: mitochondrial antiviral signaling protein (MAVS): Thiamet-G (protein)
parent chain: B1 parent chain
Take B2: the degradation_or_half_life result in data set [2] is recorded as “no change”.
